For assay [1], the target named is T1, CLDN18.2 (species not stated).
T1 construct: whole, on cells; the form of the antigen in the ka/kd/KD measurement is not described; also called CLDN18.2过表达细胞; claudin18.2
The experiment in a line: affinity measurement, method not described.

Assay [2] addresses T1, CLDN18.2 (species not stated at that …). The experiment in a line: flow cytometry on CLDN18.2-overexpressing cells, MFI against antibody concentration. A general note: Flow cytometry measures light scatter and fluorescence of single cells or particles in a stream.

For orientation: Kd means the constant that tells how readily two partners part at equilibrium. In general, koff refers to the rate constant with which the complex falls apart. As a reminder, the kon is a measure of how fast the partners come together. The low end stands for slow association, the high end for fast association. For orientation: EC50 means the concentration giving half of the maximal effect. A low value points to an effect from little substance.

B1: 全人源抗CLDN18.2抗体2A2 (CLDN-BC-2A2-hH1) (antibody, V domains shown)
VH: QVQLQQWGPGLVKPSQTLSLTCTVSGGSISSVGYYWSWIRQHPGQGLEWVGYIYYSGGTYYNPSLKSRVTISLDTSKNQFSLKLTSVTAADTAVYYCASYGSVSPYYYYYGMDVWGQGTTVTVSS
VL: DIVMTQSPSSVSASVGDRVTITCRASQGISSWLAWYQQKPGKAPNLLISAASSLQSGVPSRFSGNGSGTDFTLTISSLQPEDFASYYCQQANSFPITFGQGTRLEIK
notes: The label 2A2-hIgG1 points to a human IgG1 full antibody; Made by transient expression in ExpiCHO; also called CLN-2A2-hH1; 2A2-hIgG1
In assay [1], B1 registered a Kd of 5.24 nM, a koff of 0.00172 s⁻¹ and an on-rate (kon) of 328000 M⁻¹ s⁻¹. In addition, the midpoint of the response in assay [2], the EC50, lay at 0.62 µg/mL.
